A short description of data set [1]: Biophysical stability: deamination by LC-MS. The note with it: 4° C., 3.5 months. It counts as physicochemical. The protocol:
To evaluate the biophysical stability of the anti c-Met antibodies of the invention, such as the presence of glycosylation and deamination sites and stability, LC-MS analysis was used.
The molecular weight of the heavy and light chains was directly detected by LC-MS to analyze glycosylation. Deamination was analyzed by LC-MS at 4° C. for long time (at least 3 months), or at 40° C. for 21 days under an accelerated condition. Samples treated with different conditions were diluted to 2 mg/mL with pH 7.2 Tris-HCl; final concentrations of 10 mM of TCEP and 6M of urea (AMRESCO, Cat #0378)3 were added, then the samples were incubated for 20 minutes at 37° C. IAA (Sigma-Aldrich, Cat # I1149) with a final concentration of 20 mM was added and was incubated for 15 minutes in darkness to protect the sulfhydryl group. The pH of the sample was adjusted by dilution with Tris-HCl, pH 7.2, and protease (Sigma-Aldrich, Cat # T6567) was added at a ratio by weight of 10:1 (protein: enzyme). The samples were incubated at 37° C. for 25 minutes, and then formic acid with a final concentration of 0.1% (Fluca, Cat #94318) was added to terminate the reactions. Samples were centrifuged and analyzed by LC-MS.
BiopharmaLynx was used to analyze the presence of deamination. […] Peak area was obtained by integration, and the percentages of deamination and oxidation product were calculated.

The subject of data set [2] is MKN45 cells expressing c-Met. Briefly: Endocytosis of anti c-Met antibody in MKN45 cells (FACS). In kind it is cell-based, human. The note with it: MKN45, 10 μg/mL antibody. An excerpt: Antibodies of the invention bind to human c-Met, and have very good in vitro activity and good activity in inhibiting tumor activity in vivo. […] In order to detect whether the antibodies would be internalized into the cell along with human c-Met once bound to human c-Met, human gastric cancer cell line MKN45 (JCRB, Cat No.: JCRB0254) expressing c-Met was used for evaluation.
MKN45 cells were resuspended to 10,000,000 cells/mL in RPMI 1640 medium (GIBCO, Cat No.: 11835-030), which contains 10% (v/v) FBS (GIBCO, Cat No.: 10099-141) and penicillin/streptomycin (GIBCO, Cat No.: 15070-063). 2 mL resuspended MKN45 cells were added to a 96-well microtiter plate with 250,000 cells/well, and 10 μg/mL of c-Met antibody was added to the corresponding wells and the final volume was 100 μL. The plate was incubated at 4° C. for 1 hour. FACS buffer (phosphate buffer solution including 2.5% fetal bovine serum; Hyclone, Cat: SH30256.01B) was added and the plate was centrifuged at 4° C., 1300 rpm for 4 minutes. The supernatant was discarded and this procedure was repeated three times. 100 μL secondary antibody solution (Fluorescence labeled goat anti mouse secondary antibodies at 1:200 dilution, Biolegend, Cat #405307; Fluorescence labeled anti-human secondary antibody at 1:30 dilution, Biolegend, Cat #409304) was added into each well. The plate was incubated at 4° C. for 1 hour. FACS buffer was added and the plate was centrifuged at 4° C., 1300 rpm for 4 minutes. The supernatant was discarded and this procedure was repeated three times. Complete cell culture medium (RPMI 1640 medium with 10% FBS) was added and was incubated at 37° C. in 5% CO2 for 0, 0.5, 1, 2, 4 hours. 5 μL 7-AAD (Biolegend, Cat:420403) was added to 100 μL FACS buffer which was added to each well, and the plate was incubated at 4° C. for 30 minutes. FACS buffer was added and the plate was centrifuged at 4° C., 1300 rpm for 4 minutes. The supernatant was discarded and this procedure was repeated three times. 200 μL Stripping buffer (0.05 M glycine, pH 3.0; 0.1 M NaCl, mixed at 1:1 (v/v)) was added to each well. The cells were resuspended and were incubated for 7 minutes at room temperature. The cells were centrifuged at room temperature at 1300 rpm for 4 minutes, and the supernatant was discarded. 200 μL neutralizing wash buffer (0.15M trihydroxymethyl aminomethane, pH 7.4) was added to each well, the cells were resuspended and centrifuged at room temperature at 1300 rpm for 4 minutes, and the supernatant was discarded. 200 μL FACS buffer was added and the cells were resuspended. The prepared samples were detected by flow cytometry (BD FACS Calibur).
Endocytosis of c-Met antibody %=(intensity of fluorescence at each time point−mean intensity of fluorescence at time 0)/mean intensity of fluorescence at time 0.

The target in data set [3] is T1, c-Met antigen Sema-His (Homo sapiens, UniProt P08581).
T1 construct: Flag (C); His tag (6xHis) (C); made in house; host or cells: 293F cells (Invitrogen, Cat # R790-07); vector pEE6.4; c-Met gene template origene RC217003
As to the kind of experiment: SPR (BIACore) affinity to c-Met antigen. In kind it is binding. The note with it: 1:1 Langmuir model. How it is done: The affinity of c-Met antibody to c-Met antigen Sema-His was detected by surface plasmon resonance (SPR) in the invention.
Anti-mouse IgG (GE Life Sciences catalog # BR-1008-38) or anti-human IgG (GE Life Sciences catalog # BR-1008-39) antibodies were respectively diluted to 30 μg/mL and 50 μg/mL by sodium acetate solution pH 5.0 (GE Healthcare, Cat # BR-1003-51). An amino coupling kit (GE Life Sciences, Cat # BR100050) […] the test channels and control channels on a CM5 chip (GE Life Sciences catalog # BR-1000-12), and the coupling level was set at 15000 RU. The c-Met antibody was diluted with Running buffer PBS (Hyclone, Cat # SH30256.01B)+0.05% P20 (GE Life Sciences, Cat # BR-1000-54) to 1.5 μg/mL. Antigen Sema-His was diluted to 200 nM with running buffer, and then diluted at a 1:2 dilution with the same buffer until 0.78 nM was reached. The diluted antibody passed through the test channel for 1 minute at a speed of 30 μL/min, and the antigen passed through the test channels and control channels for 3 minutes at the same speed. 10 minutes after dissociation, the flow speed was adjusted to 10 μL/min, and regeneration buffer was passed through test channels and control channels for 3 minutes. Data was fitted by BiaEvaluation 4.1 after double deduction, and the fitting model was a 1:1 Langmuir model.
On the technique in general: In SPR one partner is held on a chip, and binding of the other changes the refractive index at the surface.

T1 sequence (P08581 with tags, fused parts or gaps limits assumed): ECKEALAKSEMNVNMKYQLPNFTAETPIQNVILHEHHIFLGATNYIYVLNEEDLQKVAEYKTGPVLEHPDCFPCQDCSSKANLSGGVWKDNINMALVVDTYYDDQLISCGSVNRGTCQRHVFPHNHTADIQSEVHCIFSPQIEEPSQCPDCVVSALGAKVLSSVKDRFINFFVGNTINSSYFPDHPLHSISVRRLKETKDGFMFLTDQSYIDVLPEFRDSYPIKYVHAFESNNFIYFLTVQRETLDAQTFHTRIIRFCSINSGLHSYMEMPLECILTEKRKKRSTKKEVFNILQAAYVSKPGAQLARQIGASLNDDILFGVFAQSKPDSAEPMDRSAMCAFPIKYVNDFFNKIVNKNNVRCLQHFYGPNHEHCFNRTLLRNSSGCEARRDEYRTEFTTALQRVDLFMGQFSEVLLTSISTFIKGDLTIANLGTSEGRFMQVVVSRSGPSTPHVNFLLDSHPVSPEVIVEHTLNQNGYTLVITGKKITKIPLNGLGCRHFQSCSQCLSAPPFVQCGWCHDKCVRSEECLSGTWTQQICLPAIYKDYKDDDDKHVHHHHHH

B1: Ab-9 (antibody)
heavy: QVTLKESGPVLVKPTETLTLTCTVSGFSLPNYGVHWVRQPPGKALEWLAVIWSGGSTNYAAAFVSRLRISKDTSKSQVVFTMNNMDPVDTATYYCARNHDNPYNYAMDYWGQGTTVTVSSASTKGPSVFPLAPCSRSTSESTAALGCLVKDYFPEPVTVSWNSGALTSGVHTFPAVLQSSGLYSLSSVVTVPSSNFGTQTYTCNVDHKPSNTKVDKTVERKCCVECPPCPAPPVAGPSVFLFPPKPKDTLMISRTPEVTCVVVDVSHEDPEVQFNWYVDGVEVHNAKTKPREEQFNSTFRVVSVLTVVHQDWLNGKEYKCKVSNKGLPAPIEKTISKTKGQPREPQVYTLPPSREEMTKNQVSLTCLVKGFYPSDIAVEWESNGQPENNYKTTPPMLDSDGSFFLYSKLTVDKSRWQQGNVFSCSVMHEALHNHYTQKSLSLSPGK
light: DIVLTQSPASLAVSPGQRATITCRANKSVSTSTYNYLHWYQQKPGQPPKLLIYLASNLASGVPARFSGSGSGTDFTLTINPVEANDTANYYCQHSRDLPPTFGQGTKLEIKRTVAAPSVFIFPPSDEQLKSGTASVVCLLNNFYPREAKVQWKVDNALQSGNSQESVTEQDSKDSTYSLSSTLTLSKADYEKHKVYACEVTHQGLSSPVTKSFNRGEC
In general, Kd refers to the equilibrium constant for the complex coming apart. As to B1, the “Analysis of deamination: percentage of deaminated molecules” value in data set [1] is 0.66%. Further, the endocytosis % is given as 0% in data set [2] (0 h); 26% in data set [2] (0.5 h); 32% in data set [2] (1 h); 32% in data set [2] (2 h); 31% in data set [2] (4 h). Binding in data set [3] was put at a Kd of 4 nM.

The values above are taken from patent US20200054764A1, “MEDICAL USE OF ANTI-C MET ANTIBODY-CYTOTOXIC DRUG CONJUGATE” (priority 2016, published 2020).
